Laboratory results: patent US6162627, “Methods of identifying inhibitors of sensor histidine kinases through rational drug design” (University of Medicine and Dentistry of New Jersey, dated 2000)

B1: EnvZ(C)(290-450) (enzyme)
chain: TGQEMPMEMADLNAVLGEVIAAESGYEREIETALYPGSIEVKMHPLSIKRAVANMVVNAARYGNGWIKVSSGTEPNRAWFQVEDDGPGIAPEQRKHLFQPFVRGDSARTISGTGLGLAIVQRIVDNHNGMLELGTSERGGLSIRAWLPVPVTRAQGTTKEG

How the values were obtained:
[1] = molecular target: EnvZ(C)(223-289) (Escherichia coli)
[2] = molecular target: the molecule itself; test: gel filtration (21.6 kDa) and dynamic light scattering (26.5 kDa) against a calculated molecular weight of 17.6 kDa

Molecule | phosphorylation activity on sub-domain A against that of H6-EnvZ(C)H1 [1] [%] | binding result [2]
EnvZ(C)(290-450) (enzyme) | 5 | –
B1 | – | no binding
